The values below come from patent US20240376185A1.

Assay [1] addresses bovine IgG. Kind of assay: ELISA, coated antigen, E. coli supernatant.
Assay [2] has as its target dog IgG Fab fragment. Description: ELISA, coated antigen, E. coli supernatant. Background: An ELISA detects its analyte on a solid surface through an enzyme-linked reagent.
Assay [3] concerns the target dog IgG. Description: ELISA, coated antigen, E. coli supernatant.
The target of assay [4] is guinea pig IgG. Kind of assay: ELISA, coated antigen, E. coli supernatant.
Assay [5] addresses horse IgG Fab fragment. Kind of assay: ELISA, coated antigen, E. coli supernatant.
For assay [6], the target named is horse IgG Fc fragment. Description: ELISA, coated antigen, E. coli supernatant.
For assay [7], the target named is human IgG. Description: ELISA, coated antigen, E. coli supernatant.
Assay [8] addresses swine IgG. Description: ELISA, coated antigen, E. coli supernatant.
Assay [9] concerns the target horse IgG. Description: ELISA, coated antigen, E. coli supernatant (no SDA 0.255, 0.261).
Assay [10] addresses dog serum albumin (dog) (UniProt P49822). Description: ELISA, coated albumin, E. coli supernatant.
For assay [11], the target named is horse serum albumin (horse) (UniProt P35747). Description: ELISA, coated albumin, E. coli supernatant.
Chain of horse serum albumin (horse) (P35747 25-607): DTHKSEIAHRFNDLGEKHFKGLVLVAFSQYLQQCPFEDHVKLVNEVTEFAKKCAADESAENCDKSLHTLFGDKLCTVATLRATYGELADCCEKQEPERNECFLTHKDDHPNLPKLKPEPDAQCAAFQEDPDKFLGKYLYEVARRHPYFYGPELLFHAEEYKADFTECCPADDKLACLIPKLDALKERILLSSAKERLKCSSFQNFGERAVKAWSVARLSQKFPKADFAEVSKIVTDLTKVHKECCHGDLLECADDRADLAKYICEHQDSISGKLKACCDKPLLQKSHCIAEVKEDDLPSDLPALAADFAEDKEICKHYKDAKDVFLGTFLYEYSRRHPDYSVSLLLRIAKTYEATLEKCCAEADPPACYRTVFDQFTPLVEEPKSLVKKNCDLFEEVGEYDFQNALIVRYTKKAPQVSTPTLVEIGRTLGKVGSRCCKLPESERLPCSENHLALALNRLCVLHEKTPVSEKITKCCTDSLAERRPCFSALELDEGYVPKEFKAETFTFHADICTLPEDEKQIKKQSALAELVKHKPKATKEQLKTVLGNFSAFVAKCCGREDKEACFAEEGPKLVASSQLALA
For assay [12], the target named is human serum albumin (human) (UniProt P02768). Kind of assay: ELISA, coated albumin, E. coli supernatant.

Chain of dog serum albumin (dog) (P49822 25-608): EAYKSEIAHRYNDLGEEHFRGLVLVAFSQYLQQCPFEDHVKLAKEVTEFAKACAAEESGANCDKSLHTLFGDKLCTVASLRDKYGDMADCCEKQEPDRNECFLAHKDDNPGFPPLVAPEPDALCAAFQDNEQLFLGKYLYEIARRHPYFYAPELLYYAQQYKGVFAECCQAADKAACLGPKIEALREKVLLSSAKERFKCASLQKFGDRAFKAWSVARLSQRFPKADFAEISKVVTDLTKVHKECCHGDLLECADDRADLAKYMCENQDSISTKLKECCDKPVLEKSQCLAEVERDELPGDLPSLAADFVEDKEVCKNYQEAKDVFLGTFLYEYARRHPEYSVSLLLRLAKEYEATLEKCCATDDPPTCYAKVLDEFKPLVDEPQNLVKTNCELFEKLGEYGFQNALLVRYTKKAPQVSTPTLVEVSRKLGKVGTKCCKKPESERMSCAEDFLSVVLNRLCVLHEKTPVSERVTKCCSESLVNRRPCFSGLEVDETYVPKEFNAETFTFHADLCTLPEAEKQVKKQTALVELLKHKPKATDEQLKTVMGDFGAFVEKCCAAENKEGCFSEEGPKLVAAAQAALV

B1: SVG23 (VHH, not shown: large carriers)
VHH: QVQLQESGGGLVQAGGSLRLSCAASGRAFGSYTMNWFRQAPGKERDFVAGIMSSGMNTWYADSVKGRFTISRDNAKNTVYLQMNSLKPEDTAVYYCASRPRSTMTSGRYLYDYWGQGTQVTVSS
With B1, the absorbance at 450 nm in assay [1] is 0.062 A450; in [2] it was 0.061 A450; in [3], 1.74 A450; in [4] it was 0.068 A450; in assay [5] it was 0.056 A450; in assay [6] it was 0.072 A450. Further, the figures for the absorbance at 450 nm in assay [7], in assay [8] and in assay [9] were 0.073 A450, 0.092 A450 and 0.26 A450, respectively.

B2: SVA04 (VHH, not shown: large carriers)
VHH: QVQLQQSGGGLVQAGGSLRLACAASGRTLSSYVMGWFRQAPGKEREFVAAISWSGGSTYYADSVKGRFTISRDNAKNTVYLQMNSLKPEDTAVYYCAATLRGSNRYYSGRVYDYWGQGTQVTVSS
Molecule B2 yielded an absorbance at 450 nm in assay [10] of 1.53 A450.

B3: SVA12 (VHH)
VHH: QVQLQESGGRLVQAEDSLRLSCAASGRTFVSYDMGWFRQAPGKEREFVAAINWRGYTTDYVDSVKGRFFISRDIAKSTVYLQMNNLKPEDTAVYYCAARQMSGSSRYSPPGRVGYDFWGQGTQVTVSS
For B3, the absorbance at 450 nm was 1.77 A450 in assay [10], 2 A450 in [11] and 0.057 A450 in [12].

B4: SVG13 (VHH)
VHH: QVQLQESGGGLVQPGGSLRLSCEASGFTFDDYGMSWVRQAPGKGLEWVSSLTPNGGSTYYADSVKGRFTISRDNAKNTLYLQMNSLKPEDTALYYCAKNSYYGAMDYWGKGTLVTVSS
Regarding B4, the absorbance at 450 nm in assay [1] was 0.272 A450; in assay [2] it was 0.59 A450; in assay [3], 0.693 A450; in assay [4], 0.579 A450; in [5], 0.222 A450; in [6] it was 0.097 A450. Also, the absorbance at 450 nm in assay [7] was 0.524 A450; in [8] it was 0.195 A450; in assay [9], 0.436 A450.

B5: SVG03 (VHH, not shown: large carriers)
VHH: QVQLQESGGGLVQAGGSLRLSCAASGRTFSNYVMGWFRQAPGKEREFVSAISWNGVSTFYADSVKGRFTISRDNAKNTVYLQMNSLKPEDTAVYYCAADERFVVRYNYWGQGTQVTVSS
For the molecule B5, the absorbance at 450 nm in assay [1] amounted to 0.061 A450; in assay [2], 0.054 A450; in [3], 0.07 A450; in assay [4], 0.063 A450; in assay [5], 0.057 A450; in [6], 0.476 A450. For the same molecule, the absorbance at 450 nm in assay [7] was 0.076 A450; in assay [8], 0.075 A450; in assay [9], 1.1 A450.

B6: SVG18 (VHH, not shown: large carriers)
VHH: QVQLQQSGGGLVQPGGSLRLSCAASGFTFSSYAMSWVRQAPGKGLEWVSAINSGGDIISYADSVKGRFTISRDNAKNTLYLQMNSLKPEDTAVYYCAKSPIVRTYGGYDYWGQGTQVTVSS
B6: the absorbance at 450 nm in [1] came to 0.124 A450; in assay [2], 1.36 A450; in assay [3], 1 A450; in [4], 0.174 A450; in [5] it was 0.32 A450; in assay [6], 0.072 A450. The results for the absorbance at 450 nm in assay [7], in assay [8] and in assay [9] were 0.096 A450, 0.097 A450 and 0.478 A450, respectively.

B7: SVG24 (VHH, not shown: large carriers)
VHH: QVQLQQSGGGLVQAGGSLRLSCAASGRTFSTYNIAWFRQAPGKEREFVTAITWGSGNTYYADSVKGRFTISRDNAKNTVFLQMNSLKPDDTAVYYCAARRSLGPTMAFAYEYWGQGTQVTVSS
As to B7, the absorbance at 450 nm was determined as 0.075 A450 in assay [1]; 0.074 A450 in assay [2]; 1.74 A450 in [3]; 0.068 A450 in assay [4]; 0.06 A450 in assay [5]; 1.67 A450 in assay [6]. The absorbance at 450 nm in [7] is 0.084 A450; in [8], 0.341 A450; in [9] it was 0.765 A450.

B8: SVG19 (VHH, not shown: large carriers)
VHH: QVQLQQSGGGLVQPGGSLRLSCAASGFTFSSYAMSWVRQAPGKGLEWVSAINSGGGSTSYADSVKGRFTISRDNAKNTLYLQMNSLKPEDTAVYYCAKDFDPWGVGTGGYDYWGQGTQVTVSS
As for B8, the absorbance at 450 nm in [1] turned out to be 0.453 A450; in assay [2] it was 1.22 A450; in assay [3], 1.02 A450; in [4], 0.435 A450; in assay [5], 0.472 A450; in [6], 0.079 A450. Further, the absorbance at 450 nm turned out to be 0.309 A450 in assay [7], 0.146 A450 in [8] and 0.681 A450 in assay [9].

B9: SVG07 (VHH, not shown: large carriers)
VHH: QVQLQESGPGLVKPSQTLSLTCTVSGGSITTTAYAWSWIRQPPGKGLEWMGAIRFDGTTDYSPSLKSRISISRDTSNNQFSLRMSSVTPEDTAVYYCARYGVVSDHGGLDYWGQGTQVTVSS
On to B9, for which the absorbance at 450 nm was 0.121 A450 in assay [1]; 0.454 A450 in assay [2]; 0.479 A450 in assay [3]; 0.249 A450 in assay [4]; 0.152 A450 in assay [5]; 0.099 A450 in assay [6]. Besides, the absorbance at 450 nm in assay [7] was determined as 0.17 A450; in [8] it was 0.103 A450; in [9] it was 0.401 A450.

B10: SVG06 (VHH)
VHH: QVQLQESGGALVQPGGSLRLSCAASGFPFSAYDMTWVRQAPGQGLEWVSTIHKSGGITTYADSVKGRFTISRDNAKNTLYLQMNNLESEDTAVYYCAKALRAHNSDYVGRNALGSWGEGTLVTVSS
For the molecule B10, the absorbance at 450 nm in assay [1] was determined as 0.172 A450; in assay [2], 0.178 A450; in assay [3] it was 0.277 A450; in [4] it was 0.204 A450; in assay [5], 0.089 A450; in [6], 0.073 A450. For the same molecule, the absorbance at 450 nm in [7] is 0.365 A450; in assay [8], 0.131 A450; in assay [9], 0.325 A450.
